From the supplement of paper PMC9112550, “Optimization of the antimicrobial peptide Bac7 by deep mutational scanning” (BMC Biology, 2022)

Each sequence was assayed on Escherichia coli TOP10 (assay: shrunken log2 fold change of peptide-encoding DNA abundance (4.5 h post-induction vs induction); higher = less antimicrobial activity (less host growth inhibition)). Details: time post-induction: 4.5 h; library: site-saturation at positions 5, 18, 19, 20.
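Further: peptides expressed intracellularly from a pBAD plasmid library in pooled LB shake-flask culture, induced with 0.3% L-arabinose, DNA abundance read by NGS, three biological replicates, DESeq2 with apeglm shrinkage.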

Sequence	shrunken log2 fold change
RRIRARPPRLPRPRPRPMRHPRP	0.38
RRIRVRPPRLPRPRPRPNWWPRP	0.175
RRIRLRPPRLPRPRPRPLVSPRP	0.0156
RRIRARPPRLPRPRPRPSSYPRP	-0.342
RRIRHRPPRLPRPRPRPDKLPRP	-0.0246
RRIRPRPPRLPRPRPRPCHRPRP	-0.181
RRIRSRPPRLPRPRPRPPWPPRP	0.51
RRIRERPPRLPRPRPRPGDCPRP	-0.0777
RRIRNRPPRLPRPRPRPVMPPRP	0.267
RRIRHRPPRLPRPRPRPKIRPRP	-0.156
RRIRDRPPRLPRPRPRPRINPRP	0.0252
RRIRARPPRLPRPRPRPPKIPRP	0.327
RRIRWRPPRLPRPRPRPLDFPRP	0.0518
RRIRPRPPRLPRPRPRPPLDPRP	0.517
RRIRGRPPRLPRPRPRPIGRPRP	0.551
RRIRKRPPRLPRPRPRPSFMPRP	1.94
RRIRPRPPRLPRPRPRPDEPPRP	0.0641
RRIRDRPPRLPRPRPRPEHDPRP	-0.0084
RRIRARPPRLPRPRPRPGAMPRP	0.959
RRIRSRPPRLPRPRPRPCTSPRP	-0.0192
RRIRARPPRLPRPRPRPLDRPRP	-0.233
RRIRQRPPRLPRPRPRPLWNPRP	-0.245
RRIRQRPPRLPRPRPRPSNHPRP	-0.346
RRIRWRPPRLPRPRPRPRWDPRP	0.0641
RRIRHRPPRLPRPRPRPDQKPRP	0.0292

Sequence	shrunken log2 fold change
RRIRARPPRLPRPRPRPGPHPRP	0.568
RRIRSRPPRLPRPRPRPHHIPRP	-1.12
RRIRRRPPRLPRPRPRPPCAPRP	0.667
RRIRSRPPRLPRPRPRPYLDPRP	-0.175
RRIRTRPPRLPRPRPRPQGKPRP	-0.108
RRIRIRPPRLPRPRPRPKHAPRP	-0.126
RRIRGRPPRLPRPRPRPMTVPRP	0.0506
RRIRCRPPRLPRPRPRPHQTPRP	-0.0284
RRIRCRPPRLPRPRPRPSKMPRP	-0.492
RRIRKRPPRLPRPRPRPQTKPRP	0.069
RRIRYRPPRLPRPRPRPQQGPRP	-0.34
RRIRLRPPRLPRPRPRPNQHPRP	-0.222
RRIRTRPPRLPRPRPRPPSAPRP	0.442
RRIRARPPRLPRPRPRPNRFPRP	0.145
RRIRFRPPRLPRPRPRPEEHPRP	-0.0677
RRIRERPPRLPRPRPRPRGFPRP	-0.0872
RRIRRRPPRLPRPRPRPTEDPRP	0.477
RRIRKRPPRLPRPRPRPRCLPRP	0.226
RRIRQRPPRLPRPRPRPWMPPRP	-0.167
RRIRNRPPRLPRPRPRPNLQPRP	-0.446
RRIRRRPPRLPRPRPRPTRTPRP	0.681
RRIRTRPPRLPRPRPRPVKYPRP	0.0856
RRIRLRPPRLPRPRPRPFETPRP	-0.241
RRIRQRPPRLPRPRPRPFTFPRP	-0.249
RRIRSRPPRLPRPRPRPDFQPRP	-0.0122

Sequence	shrunken log2 fold change
RRIRLRPPRLPRPRPRPRKEPRP	0.325
RRIRLRPPRLPRPRPRPYVLPRP	-0.0278
RRIRQRPPRLPRPRPRPPYWPRP	0.0656
RRIRPRPPRLPRPRPRPAKCPRP	-0.172
RRIRGRPPRLPRPRPRPAPHPRP	0.95
RRIRIRPPRLPRPRPRPAYDPRP	-0.325
RRIRYRPPRLPRPRPRPCAQPRP	-0.00639
RRIRGRPPRLPRPRPRPCCMPRP	0.474
RRIRHRPPRLPRPRPRPKASPRP	-0.0128
RRIRDRPPRLPRPRPRPRLKPRP	0.411
RRIRERPPRLPRPRPRPMLEPRP	0.282
RRIRARPPRLPRPRPRPKQYPRP	-0.0335
RRIRKRPPRLPRPRPRPLHKPRP	0.342
RRIRMRPPRLPRPRPRPICAPRP	0.486
RRIRLRPPRLPRPRPRPSAFPRP	-0.181
RRIRIRPPRLPRPRPRPAQEPRP	-0.0756
RRIRRRPPRLPRPRPRPTHSPRP	0.775
RRIRMRPPRLPRPRPRPCYDPRP	0.0509
RRIRWRPPRLPRPRPRPSGAPRP	0.527
RRIRPRPPRLPRPRPRPVSTPRP	0.13
RRIRFRPPRLPRPRPRPCNDPRP	-0.122
RRIRERPPRLPRPRPRPSYIPRP	-0.216
RRIRWRPPRLPRPRPRPYYAPRP	-0.195
RRIRRRPPRLPRPRPRPIYCPRP	-0.0446
RRIRQRPPRLPRPRPRPQYTPRP	-0.249
